Measured values: US20020094544A1

Columns and labels:
[1] = target: Human opioid receptor subtype µ (human) (UniProt P35372); assay: cell-based or functional assay
[2] = target: Human opioid receptor subtype δ2 (human) (UniProt P41143); assay: cell-based or functional assay
Human opioid receptor subtype δ2 (human), sequence (P41143 whole entry, stated change not applied): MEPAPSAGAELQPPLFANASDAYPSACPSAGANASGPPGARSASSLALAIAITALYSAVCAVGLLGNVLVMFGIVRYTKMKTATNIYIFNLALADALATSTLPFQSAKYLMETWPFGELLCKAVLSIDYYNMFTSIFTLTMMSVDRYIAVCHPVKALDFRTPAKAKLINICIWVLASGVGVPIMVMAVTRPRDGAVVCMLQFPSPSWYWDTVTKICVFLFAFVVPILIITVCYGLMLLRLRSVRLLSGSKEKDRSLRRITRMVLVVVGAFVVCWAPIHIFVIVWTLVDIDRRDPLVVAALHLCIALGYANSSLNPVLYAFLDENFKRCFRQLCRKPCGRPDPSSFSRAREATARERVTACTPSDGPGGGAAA

Human opioid receptor subtype µ (human), sequence (P35372 whole entry): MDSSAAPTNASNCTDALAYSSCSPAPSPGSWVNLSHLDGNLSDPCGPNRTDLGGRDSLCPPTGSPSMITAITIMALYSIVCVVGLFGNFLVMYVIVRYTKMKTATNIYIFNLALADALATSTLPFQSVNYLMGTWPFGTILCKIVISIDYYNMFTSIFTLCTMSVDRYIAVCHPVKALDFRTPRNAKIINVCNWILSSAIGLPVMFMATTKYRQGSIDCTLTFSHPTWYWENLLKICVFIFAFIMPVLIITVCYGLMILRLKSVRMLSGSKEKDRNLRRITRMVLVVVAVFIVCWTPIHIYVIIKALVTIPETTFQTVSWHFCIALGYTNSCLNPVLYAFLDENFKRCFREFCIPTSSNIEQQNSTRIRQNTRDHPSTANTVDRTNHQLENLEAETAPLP

For “dynorphin A (from UniProt P01213 207-223) (peptide)”, the increase in basal level fluorescence (binding of BODIPY-FL-GTPγS to receptor arrays) [1] was 2.5 fold and the increase in basal level fluorescence (binding of BODIPY-FL-GTPγS to receptor arrays) [2] was 10 fold.
